Measured values: US11339371B2, “Method for inducing pluripotent stem cells to differentiate into ventricular myocytes in vitro” (Institute of Biophysics, Chinese Academy of Sciences, priority 2012, dated 2022)

Tests used:
Assay type in all cases: cell-based, human
IRX-4 = assay: quantitative RT-PCR of ventricle-specific early marker gene IRX-4 at day 14 of differentiation; conditions: for IRX-4 expression level (FIG. 2A): added to the cultures at various concentrations, relative to GADPH
From the text: T-Smad1/5/8 represents total Smad1/5/8 proteins. β-actin served as an internal loading control. The histogram in FIG. 1C presents the experimental results of quantitative RT-PCR analysis of IRX-4 gene expression levels at 14 days of differentiation. […] Connected line indicates the cardiac differentiation efficiency of the stem cells under the corresponding inductive conditions. N represents noggin, B represents BMP4; NVa represents differentiated cells cultured in vitamin A-free medium; RA represents retinoic acid; and numbers represent the concentrations (Unit for BMP4 is ng/mL). Data are expressed as relative values compared with the expression level of glyceraldehyde-3-phosphate dehydrogenase (GADPH).
FIG. 2 presents quantitative RT-PCR analysis of the expression levels of the ventricle-specific early marker gene IRX-4 at day 14 in differentiated cultures with various treatments. […] However, the expression level is reduced by addition of a BMP antagonist, noggin. […] N represents noggin; B represents BMP4, NVa represents differentiated cells treated in vitamin A-free medium; RA represents retinoic acid; and numbers represents the concentrations (Unit is ng/mL). The results of quantitative RT-PCR are indicated as relative values compared with the expression levels of GADPH.
RA represents retinoic acid; RAi represents a retinoic acid inhibitor, BMS189453; NVa represents vitamin A-free medium; The RAR pan-antagonist is BMS493. The results of quantitative RT-PCR are expressed as relative values compared with cTNT expression
2) The role of the BMP pathway in directed differentiation of CM subtypes was analyzed further during cardiac differentiation of stem cells. IRX-4 is a marker gene expressed during early differentiation of VMs. Thus, the IRX-4 expression level was measured to further study the role of the BMP pathway in differentiation of CM subtypes.

[1] = test system: MLC-2v-expressing VMs among differentiated CMs; assay: flow cytometry of MLC-2v-expressing cells among cTNT-expressing CMs at day 90; conditions: for proportion of MLC-2v-expressing cells among differentiated CMs: day 90
Method: (§1) In some embodiments, from about day 14 of differentiation, growth factor-free medium is used and replaced every 3 days. After about 60 to about 90 days of differentiation, the percentage of VMs in the differentiated CMs was determined with the analysis of APs of CMs (recorded by the patch clamp technique), calcium imagining studies, and/or MLC-2v and cardiac troponin T (cTNT) double immunofluorescence staining for flow cytometric analysis.
(§2) RA represents 1 μM retinoic acid; B represents BMP4; NVa represents vitamin A-free medium; N represents noggin; and numbers represent the concentrations (Unit is ng/mL). The RARγ concentration is 0.1 μM.
(§3) 5) As mentioned above, during early differentiation of CMs, IRX-4 is an important gene with specific expression in differentiated VMs. As CMs mature, VMs begin to specifically express the MLC-2v gene. Thus, the MLC-2v expression level was measured in differentiated cells at day 90 of culture after treatment with various growth factors. […] Moreover, flow cytometry was performed to determine the proportion of MLC-2v-expressing VMs among differentiated CMs (cTNT-expressing cells) at day 90. […] The most classical method to identify the subtypes of CMs is to measure the APs of the CMs. The proportions of cells with atrial-, ventricular-, and nodal-like APs among differentiated CMs were analyzed after treatment with retinoic acid and various doses of BMP4 (FIG. 8).

differentiated CMs [2] = assay: action potential classification of differentiated CMs (patch clamp); conditions: for proportion of CMs with ventricular-like APs: treatment alone during middle stage, differentiated CMs at 90 days
Method: as §1, §2, §3

BMP2 = assay: quantitative RT-PCR of BMP2 expression at day 6 of differentiation; conditions: added with DKK1, vitamin A-free medium
From the text: The results of quantitative RT-PCR are indicated as relative values compared with those of GADPH. NVa represents vitamin A-free medium.
Additionally, in vitamin A-containing medium, early specific IRX-4 expression in VMs was activated by addition of DKK1 and antagonists of RARα and RAR. This indicated induced differentiation of stem cells into VMs. Because retinoic acid has three RARs receptors (RARα, RARβ, and RARγ), simultaneous inhibition of RARα and RARβ in the presence of vitamin A or retinoic acid has a similar mechanism and effect as that of independent activation of RARγ alone.

differentiated CMs [3] = assay: calcium imaging of differentiated CMs by confocal laser scanning microscopy at 60-90 days; conditions: 60-90 days of differentiation
From the text: FIG. 5 presents images from confocal laser scanning microscopy and simultaneous recordings of APs of calcium activity in differentiated CMs and the classification of the differentiated CMs according to the specific calcium activity patterns in the various types of CMs. […] FIG. 5B presents the proportions of CMs with Ca^2+ sparks, Ca^2+ transients, and Ca^2+ oscillations in different treatments as classified by calcium signaling patterns of the various subtypes of CMs in A. The vertical axis represents the proportions of CMs with the three different calcium activities; RA represents 1 μM retinoic acid; Letter B represents BMP4; NVa represents vitamin A-free medium; N represents noggin; and numbers represent the concentrations (ng/mL).
4) To verify the role of the BMP pathway in regulating the differentiation of VMs from stem cells, calcium activities of cardiomyocytes were recorded with confocal laser scanning microscopy at 60-90 days of differentiation. Calcium activity in VMs clearly differs from that in AMs and nodel cells. Calcium activity in VMs has a higher imaging frequency, known as Ca^+ sparks. […] Thus, comparing the image pattern of calcium activities in CMs is an effective method to distinguish VMs from AMs and nodel cells.

MLC-2v = assay: western blot of MLC-2v expression in differentiated cells at day 90
Method: FIG. 4B presents the results of double immunofluorescence staining of cTNT and MLC-2v in CMs at day 90 of differentiation after retinoic acid, BMP4, and noggin treatments. Letter B in the figures represents BMP4, NVa represents differentiated cells cultured in vitamin A-free medium; RA represents 1 μM retinoic acid; and numbers represent the concentrations (ng/mL).
as §3

Molecule	ventricle-specific IRX-4 expression (IRX-4; added along with DKK1 during middle stage of cardiac differentiation, vitamin A-free medium, relative to cTNT)	proportion of MLC-2v-expressing cardiomyocytes in cardiomyocytes population (cTNT-expressing cells) ([1]; 90 days of differentiation, 0.1 μM, vitamin A-free medium)	proportion of CMs with ventricular-like APs (differentiated CMs [2])	BMP2 expression (BMP2)	IRX-4 expression level in retinoic acid-treated culture (IRX-4; added simultaneously with 1 μM retinoic acid, day 5 to day 8, various doses)	IRX-4 expression level (FIG. 2A) (IRX-4; day 14)	proportion of cells with Ca+ sparks among differentiated CMs (differentiated CMs [3]; retinoic acid plus increasing BMP4)	proportion of cells with Ca+ transients among differentiated CMs (differentiated CMs [3]; retinoic acid treatment, with or without BMP4)	MLC-2v protein expression level (MLC-2v)	proportion of MLC-2v-expressing cells among differentiated CMs ([1]; BMP4 added to cells after retinoic acid treatment)	proportion of MLC-2v-expressing cells among differentiated CMs ([1]; BMP4 treatment alone)	proportion of cells with ventricular-like APs (differentiated CMs [2]; differentiated CMs after retinoic acid treatment, increasing doses of BMP4)	elevation of the IRX-4 expression level by BMP4 in the presence of retinoic acid (FIG. 2D) (IRX-4; increasing concentrations of noggin, day 14)	IRX-4 expression level (IRX-4; vitamin A-free medium, added day 5 to day 8 of differentiation, 300, 600, 1200 ng/mL)
CC1(C)CCC(C)(C)c2cc([C@@H](O)C(=O)Nc3ccc(C(=O)O)cc3F)ccc21 [RARγ, reference compound]	high expression	up to 80%	92%	high expression	–	–	–	–	–	–	–	–	–	–
BMP4: bone morphogenetic protein, growth factor activating Smad1/5/8 signaling; purchased from R&D systems (protein, UniProt P12644 293-408, looked up) Bone morphogenetic protein 4: SPKHHSQRARKKNKNCRRHSLYVDFSDVGWNDWIVAPPGYQAFYCHGDCPFPLADHLNSTNHAIVQTLVNSVNSSIPKACCVPTELSAISMLYLDEYDKVVLKNYQEMVVEGCGCR	–	–	more than 90%	–	increased correspondingly	elevated with increasing concentrations of BMP4	increased with increasing concentrations of BMP4	decreased with increasing concentrations of BMP4	increased with increasing concentrations of BMP4	effectively increased	highest proportion	increased significantly	–	–
noggin: BMP2/4 pathway inhibitor (BMP antagonist); purchased from R&D systems (protein, UniProt Q13253 28-232, looked up) Noggin: QHYLHIRPAPSDNLPLVDLIEHPDPIFDPKEKDLNETLLRSLLGGHYDPGFMATSPPEDRPGGGGGAAGGAEDLAELDQLLRQRPSGAMPSEIKGLEFSEGLAQGKKQRLSKKLRRKLQMWLWSQTFCPVLYAWNDLGSRFWPRYVKVGSCFSKRSCSVPEGMVCKPSKSVHLTVLRWRCQRRGGQRCGWIPIQYPIISECKCSC	–	–	–	–	–	reduced	–	–	–	–	–	–	reduced with additions of increasing concentrations of noggin	effectively reduced
